Assay results: publication PMC3136172, “Stabilization of a G-Quadruplex from Unfolding by Replication Protein A Using Potassium and the Porphyrin TMPyP4”

Legend:
[1] = target: RPA (full-length replication protein A) (human, UniProt P27694;P15927;P35244 1-616;1-270;1-121); test: CD titration (G4 unfolding); 100 mM NaCl, 2 mM Mg2+; complete unfolding at RPA:DNA ratio 2; 25 mM Tris pH 7.5, 2 mM MgCl2, 0.5% inositol, 1 mM DTT, 100 mM NaCl or 100 mM KCl, 25 C; 1.4 uM DNA, protein:DNA ratio 0-5; settings: protein: recombinant; copies: 1;1;1; intramolecular G4; mixed parallel/antiparallel in K+, antiparallel in Na+
RPA-CDE-core = RPA-CDE-core (UniProt P27694;P15927;P35244 436-616;45-171;1-121); test: CD titration (G4 unfolding); 100 mM NaCl, 2 mM Mg2+; efficient unfolding, less than RPA; 25 mM Tris pH 7.5, 2 mM MgCl2, 0.5% inositol, 1 mM DTT, 100 mM NaCl or 100 mM KCl, 25 C; 1.4 uM DNA, protein:DNA ratio 0-5; settings: protein: recombinant; tags: N-terminal His-tag, thrombin-cleaved; copies: 1;1;1; intramolecular G4; mixed parallel/antiparallel in K+, antiparallel in Na+
RPA-CDE-core, sequence (P27694 436-616, chain 1 of 3): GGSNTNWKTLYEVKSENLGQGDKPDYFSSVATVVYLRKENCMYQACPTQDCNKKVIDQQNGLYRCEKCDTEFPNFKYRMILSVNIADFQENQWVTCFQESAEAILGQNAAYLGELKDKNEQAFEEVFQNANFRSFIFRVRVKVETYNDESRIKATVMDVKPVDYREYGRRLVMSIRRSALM
RPA-CDE-core, sequence (P15927 45-171, chain 2 of 3): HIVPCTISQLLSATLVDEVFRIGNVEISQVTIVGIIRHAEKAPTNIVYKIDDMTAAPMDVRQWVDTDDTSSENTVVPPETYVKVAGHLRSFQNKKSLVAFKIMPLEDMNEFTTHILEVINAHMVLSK
RPA-CDE-core, sequence (P35244 whole entry, chain 3 of 3): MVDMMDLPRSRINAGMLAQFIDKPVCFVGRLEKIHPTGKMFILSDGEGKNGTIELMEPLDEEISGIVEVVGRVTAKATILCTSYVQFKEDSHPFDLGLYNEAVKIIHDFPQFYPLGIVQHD

RPA (full-length replication protein A), sequence (P27694 whole entry, chain 1 of 3): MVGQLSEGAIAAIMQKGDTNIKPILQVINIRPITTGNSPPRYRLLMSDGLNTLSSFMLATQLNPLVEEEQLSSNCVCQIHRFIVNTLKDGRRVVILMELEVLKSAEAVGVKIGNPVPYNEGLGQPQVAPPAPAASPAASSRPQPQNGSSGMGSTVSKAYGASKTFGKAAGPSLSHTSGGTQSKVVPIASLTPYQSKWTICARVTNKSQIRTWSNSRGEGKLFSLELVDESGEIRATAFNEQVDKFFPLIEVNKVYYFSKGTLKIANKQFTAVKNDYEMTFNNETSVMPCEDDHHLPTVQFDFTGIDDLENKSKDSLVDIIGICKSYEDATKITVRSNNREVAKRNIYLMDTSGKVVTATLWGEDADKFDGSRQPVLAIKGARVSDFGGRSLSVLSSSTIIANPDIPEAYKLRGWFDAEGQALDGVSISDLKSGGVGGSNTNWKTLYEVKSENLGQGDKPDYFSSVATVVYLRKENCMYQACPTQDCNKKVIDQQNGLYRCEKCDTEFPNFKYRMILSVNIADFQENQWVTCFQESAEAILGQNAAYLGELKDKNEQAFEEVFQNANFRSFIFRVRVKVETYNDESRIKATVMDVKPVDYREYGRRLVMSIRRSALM
RPA (full-length replication protein A), sequence (P15927 whole entry, chain 2 of 3): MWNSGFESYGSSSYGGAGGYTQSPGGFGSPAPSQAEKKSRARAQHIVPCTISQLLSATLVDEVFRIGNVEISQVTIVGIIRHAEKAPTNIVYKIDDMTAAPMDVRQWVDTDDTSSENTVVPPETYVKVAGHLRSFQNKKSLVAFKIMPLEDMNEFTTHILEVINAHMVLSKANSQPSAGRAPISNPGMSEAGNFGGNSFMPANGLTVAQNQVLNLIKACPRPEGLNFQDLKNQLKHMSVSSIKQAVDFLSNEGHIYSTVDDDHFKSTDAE
RPA (full-length replication protein A), sequence (P35244 whole entry, chain 3 of 3): as the sequence (P35244 whole entry, chain 3 of 3) above

TAGGGGAAGGGTTGGAGTGGGTT (structured_DNA) [Gq23]: binds [1]; binds (RPA-CDE-core).
